Here are results for 2 sequences from article PMC7062800.

The test system of data set [1] is RdhK Hybrid A (Desulfitobacterium hafniense DCB-2 (chimera)). As to the kind of experiment: EMSA. The settings on record: 200 uM Cl-OHPA; EMSA: 100 ng DNA, 2 uM protein, 200 uM effector, 15 uL; buffer 100 mM Tris-HCl pH 8.5, 40% glycerol, 10 mM MgCl2, 500 mM NaCl, 5 mM EDTA, 10 mM DTT …. In general terms: Mobility shift assays separate free from complexed probe on a gel.

For data set [2], the system named is RdhK Hybrid B (Desulfitobacterium hafniense DCB-2 (chimera)). As to the kind of experiment: EMSA. Conditions: 200 uM Cl-OHPA; EMSA: 100 ng DNA, 2 uM protein, 200 uM effector, 15 uL; buffer 100 mM Tris-HCl pH 8.5, 40% glycerol, 10 mM MgCl2, 500 mM NaCl, 5 mM EDTA, 10 mM DTT ….

For “GAATTCTCAGGCGATGTAACCGCTTTCAAAGTTAATACACATTAATACTCTTAACAATGTGATAGCTATGATTGCACCG (double strand) [mgl-DB7]”, the binding signal in data set [1] worked out at 90 % DNA bound.
“GAATTCTCAGGCGATGTAACCGCTTTCAAATTTAGTATACGCTAAATATCTTAACAATGTGATAGCTATGATTGCACCG (double strand) [mgl-DB8]”: the binding signal in data set [1] and in data set [2] was 100 % DNA bound in each case.
